Data taken from patent US20230416365A1 (Hoffmann-La Roche, published 2023).
Substitutions are numbered along the chain they refer to. Read-outs that look alike come from different tables or passages of the source.

How the values were obtained:
N(A2B2)A-avi-His [1] = biological target: T1, N(A2B2)A-avi-His (biotinylated at the avi tag); assay: SPR off-rate, ProteOn, antigen on NLC chip, Fab in bacterial supernatant
T1 construct: also called biotinylated N(A2B2)A-avi-His
T1 chain: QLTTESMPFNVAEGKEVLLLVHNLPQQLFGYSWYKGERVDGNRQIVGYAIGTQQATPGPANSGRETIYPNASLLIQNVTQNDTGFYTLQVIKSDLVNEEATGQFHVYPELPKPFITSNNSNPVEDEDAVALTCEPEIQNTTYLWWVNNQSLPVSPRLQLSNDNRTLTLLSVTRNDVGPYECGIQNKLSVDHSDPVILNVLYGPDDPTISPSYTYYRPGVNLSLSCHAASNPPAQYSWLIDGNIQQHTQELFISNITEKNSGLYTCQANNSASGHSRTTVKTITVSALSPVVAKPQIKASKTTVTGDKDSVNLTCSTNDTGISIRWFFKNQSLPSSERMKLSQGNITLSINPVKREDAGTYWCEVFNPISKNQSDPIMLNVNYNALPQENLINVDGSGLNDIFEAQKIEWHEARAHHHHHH

N(A2B2)A-avi-His [2] = biological target: T1, N(A2B2)A-avi-His; assay: SPR, ProteOn, antigen on NLC chip, purified Fab as analyte
Hu N(A2-B2)A-avi-His = biological target: T2, Hu N(A2-B2)A-avi-His (human, biotinylated at the avi tag (Example 2.2)); assay: SPR, Biacore T200, antigen amine-coupled on CM5, Fab as analyte
T2 construct: also called hu N(A2-B2)A-avi-His B; CEACAM5-based antigen
T2 chain: T1 chain

[3] = biological target: T3, biotinylated huCD28-Fc (dimeric CD28-Fc construct with a monovalent biotinylated avi-tag) (human, UniProt P10747 19-152, biotinylated at the C-terminal avi tag); assay: SPR, ProteOn XPR36, huCD28-Fc immobilised, bispecific as analyte
T3 construct: not shown: hum IgG1 Fc fragment with hole and PG-LALA mutations; hum IgG1 Fc fragment with knob and PG-LALA mutations

[4] = biological target: T4, human CD28 on CHO cells (parental cell line CHO-k1 ATCC #CCL-61, modified to stably overexpress human CD28) (human, UniProt P10747 19-220); assay: flow cytometry on CHO cells stably expressing human CD28, monovalent one-armed IgG from supernatant, MFI (PE)
T4 construct: also called hu CD28; CHO-hCD28

[5] = biological target: T4, human CD28 on CHO cells (parental cell …); assay: as above; remark: listed apart in the source
[6] = biological target: T3, biotinylated huCD28-Fc (dimeric CD28-Fc …); assay: SPR, ProteOn XPR36, huCD28-Fc on NLC chip, bispecific as analyte
[7] = biological target: human FAP on 3T3-huFAP cells (clone 19) (human, UniProt Q12884 1-760); assay: flow cytometry on 3T3-huFAP cells, FAP-CD28 1+1 constructs, MFI (PE)
[8] = biological target: T4, human CD28 on CHO cells (parental cell …); assay: binding to CHO cells expressing human CD28 (by the table's title)

B1: A5H1EL1D Fab (phage display format, parental clone) (Fab, V domains shown)
VH: EVQLLESGGGLVQPGGSLRLSCAASGFTFTDYYMNWVRQAPGKGLEWLGFIGNKANAYTTEYSASVKGRFTISRDKSKNTLYLQMNSLRAEDTATYYCTRDRGLRFYFDYWGQGTTVTVSS
VL: EIVLTQSPATLSLSPGERATLSCRASSSVTYIHWYQQKPGQAPRSWIYATSNLASGIPARFSGSGSGTDFTLTISSLEPEDFAVYYCQHWSSKPPTFGQGTKLEIK
notes: Fab from E. coli (bacterial supernatant or IMAC-purified), Flag tag
- koff (N(A2B2)A-avi-His [1]): 0.00031 s⁻¹
- Kd (N(A2B2)A-avi-His [2]): 2.3 nM
- koff (N(A2B2)A-avi-His [2]): 0.000248 s⁻¹
- kon (N(A2B2)A-avi-His [2]): 108000 M⁻¹ s⁻¹

B2: Fab derived from P1AE2179 (Fab, V domains shown)
VH: B1 VH with L48V, A57G, T95V, T99A
VL: B1 VL with E1Q, I2T, Q41S, A42S, R44K, F70Y
notes: Fab; also called P1AE4141
- Kd (Hu N(A2-B2)A-avi-His): 1.83 nM

B3: Fab derived from P1AE2165 (Fab, V domains shown)
VH: B1 VH with A57G
VL: B1 VL with E1Q, I2T, S45L, W46L
notes: Fab; also called P1AE4136
- Kd (Hu N(A2-B2)A-avi-His): 1.25 nM

B4: Fab derived from P1AE2177 (Fab, V domains shown)
VH: B1 VH with L48V, A57G, K76N, T95V
VL: B1 VL
notes: Fab; also called P1AE4140
- Kd (Hu N(A2-B2)A-avi-His): 7.62 nM

B5: Fab derived from P1AE2176 (Fab, V domains shown)
VH: B1 VH with L48V, A57G, K76N, T95V
VL: B1 VL with Q41S, A42S, R44K
notes: Fab; also called P1AE4139
- Kd (Hu N(A2-B2)A-avi-His): 7.58 nM

B6: Fab derived from P1AE2182 (Fab, V domains shown)
VH: B1 VH with L48V, A57G, T95V, T99A
VL: B1 VL
notes: Fab; also called P1AE4143
- Kd (Hu N(A2-B2)A-avi-His): 2.92 nM

B7: Fab derived from P1AE2167 (Fab, V domains shown)
VH: B1 VH with A57G
VL: B1 VL
notes: Fab; also called P1AE4138
- Kd (Hu N(A2-B2)A-avi-His): 1.47 nM

B8: Fab derived from P1AE2181 (Fab, V domains shown)
VH: B1 VH with L48V, A57G, T95V, T99A
VL: B1 VL with Q41S, A42S, R44K
notes: Fab; also called P1AE4142
- Kd (Hu N(A2-B2)A-avi-His): 2.64 nM

B9: CEA (A5H1EL1D)-CD28 (SA_Variant 29) 1+1 format (Molecule 11D) (bispecific antibody, human IgG1, kappa, L234A L235A)
heavy 1: EIVLTQSPATLSLSPGERATLSCRASSSVTYIHWYQQKPGQAPRSWIYATSNLASGIPARFSGSGSGTDFTLTISSLEPEDFAVYYCQHWSSKPPTFGQGTKLEIKSSASTKGPSVFPLAPSSKSTSGGTAALGCLVKDYFPEPVTVSWNSGALTSGVHTFPAVLQSSGLYSLSSVVTVPSSSLGTQTYICNVNHKPSNTKVDKKVEPKSCDKTHTCPPCPAPEAAGGPSVFLFPPKPKDTLMISRTPEVTCVVVDVSHEDPEVKFNWYVDGVEVHNAKTKPREEQYNSTYRVVSVLTVLHQDWLNGKEYKCKVSNKALGAPIEKTISKAKGQPREPQVCTLPPSRDELTKNQVSLSCAVKGFYPSDIAVEWESNGQPENNYKTTPPVLDSDGSFFLVSKLTVDKSRWQQGNVFSCSVMHEALHNHYTQKSLSLSP
light 1: EVQLLESGGGLVQPGGSLRLSCAASGFTFTDYYMNWVRQAPGKGLEWLGFIGNKANAYTTEYSASVKGRFTISRDKSKNTLYLQMNSLRAEDTATYYCTRDRGLRFYFDYWGQGTTVTVSSASVAAPSVFIFPPSDEQLKSGTASVVCLLNNFYPREAKVQWKVDNALQSGNSQESVTEQDSKDSTYSLSSTLTLSKADYEKHKVYACEVTHQGLSSPVTKSFNRGEC
heavy 2: not shown
light 2: not shown
notes: huIgG1 PG-LALA CrossFab; also called P1AE4776
- Kd [3]: 1.2 nM
- koff [3]: 0.000324 s⁻¹
- kon [3]: 271000 M⁻¹ s⁻¹

B10: CEA (A5H1EL1D)-CD28 (SA_Variant 8) 1+1 format (Molecule 11B) (bispecific antibody, human IgG1, kappa, L234A L235A)
heavy 1: B9 heavy 1
light 1: B9 light 1
heavy 2: not shown
light 2: not shown
notes: huIgG1 PG-LALA CrossFab; also called P1AE4774
- Kd [3]: 58 nM
- koff [3]: 0.0098 s⁻¹
- kon [3]: 169000 M⁻¹ s⁻¹

B11: CD28(SA)_variant_12 (antibody, human IgG1, kappa, L234A L235A)
heavy: not shown
light: DIQMTQSPSSLSASVGDRVTITCRASQNIYVWLNWYQQKPGKAPKLLIYKASNLYSGVPSRFSGSRSGTDFTLTISSLQPEDFATYYCQQGQTYPYTFGQGTKLEIKRTVAAPSVFIFPPSDRKLKSGTASVVCLLNNFYPREAKVQWKVDNALQSGNSQESVTEQDSKDSTYSLSSTLTLSKADYEKHKVYACEVTHQGLSSPVTKSFNRGEC
chain: DKTHTCPPCPAPEAAGGPSVFLFPPKPKDTLMISRTPEVTCVVVDVSHEDPEVKFNWYVDGVEVHNAKTKPREEQYNSTYRVVSVLTVLHQDWLNGKEYKCKVSNKALGAPIEKTISKAKGQPREPQVCTLPPSRDELTKNQVSLSCAVKGFYPSDIAVEWESNGQPENNYKTTPPVLDSDGSFFLVSKLTVDKSRWQQGNVFSCSVMHEALHNRFTQKSLSLSP
notes: monovalent one-armed huIgG1 PG-LALA; from supernatant; also called P1AE3068
- binding result [4]: binds

B12: CD28(SA)_variant_13 (antibody, human IgG1, kappa, L234A L235A)
heavy: not shown
light: not shown
chain: B11 chain
notes: monovalent one-armed huIgG1 PG-LALA; from supernatant; also called P1AE3069
- binding result [4]: binds

B13: CD28(SA)_variant_29 (antibody, human IgG1, kappa, L234A L235A)
heavy: not shown
light: not shown
chain: B11 chain
notes: monovalent one-armed huIgG1 PG-LALA; from supernatant; also called P1AE3085
- binding result [5]: binds

B14: CD28(SA)_variant_31 (antibody, human IgG1, kappa, L234A L235A)
heavy: not shown
light: not shown
chain: B11 chain
notes: monovalent one-armed huIgG1 PG-LALA; from supernatant; also called P1AE3087
- binding result [5]: binds

B15: CD28(SA)_variant_16 (antibody, human IgG1, kappa, L234A L235A)
heavy: not shown
light: not shown
chain: B11 chain
notes: monovalent one-armed huIgG1 PG-LALA; from supernatant; also called P1AE3072
- binding result [4]: binds

B16: CD28(SA)_variant_25 (antibody, human IgG1, kappa, L234A L235A)
heavy: not shown
light: not shown
chain: B11 chain
notes: monovalent one-armed huIgG1 PG-LALA; from supernatant; also called P1AE3081
- binding result [5]: binds

B17: CD28(SA)_variant_15 (antibody, human IgG1, kappa, L234A L235A)
heavy: not shown
light: not shown
chain: B11 chain
notes: monovalent one-armed huIgG1 PG-LALA; from supernatant; also called P1AE3071
- binding result [4]: binds

B18: CD28(SA)_variant_17 (antibody, human IgG1, kappa, L234A L235A)
heavy: not shown
light: not shown
chain: B11 chain
notes: monovalent one-armed huIgG1 PG-LALA; from supernatant; also called P1AE3073
- binding result [4]: binds

B19: CD28(SA)_variant_26 (antibody, human IgG1, kappa, L234A L235A)
heavy: not shown
light: not shown
chain: B11 chain
notes: monovalent one-armed huIgG1 PG-LALA; from supernatant; also called P1AE3082
- binding result [5]: binds

B20: CD28(SA)_variant_30 (antibody, human IgG1, kappa, L234A L235A)
heavy: not shown
light: B11 light
chain: B11 chain
notes: monovalent one-armed huIgG1 PG-LALA; from supernatant; also called P1AE3086
- binding result [5]: binds

B21: CD28(SA)_variant_27 (antibody, human IgG1, kappa, L234A L235A)
heavy: not shown
light: not shown
chain: B11 chain
notes: monovalent one-armed huIgG1 PG-LALA; from supernatant; also called P1AE3083
- binding result [5]: binds

B22: CD28(SA)_variant_19 (antibody, human IgG1, kappa, L234A L235A)
heavy: not shown
light: not shown
chain: B11 chain
notes: monovalent one-armed huIgG1 PG-LALA; from supernatant; also called P1AE3075
- binding result [4]: binds

B23: FAP (4B9) - CD28 (CD28(SA)_Variant 16) 1+1 (bispecific antibody, human IgG1, kappa, L234A L235A)
heavy 1: EIVLTQSPGTLSLSPGERATLSCRASQSVTSSYLAWYQQKPGQAPRLLINVGSRRATGIPDRFSGSGSGTDFTLTISRLEPEDFAVYYCQQGIMLPPTFGQGTKVEIKSSASTKGPSVFPLAPSSKSTSGGTAALGCLVKDYFPEPVTVSWNSGALTSGVHTFPAVLQSSGLYSLSSVVTVPSSSLGTQTYICNVNHKPSNTKVDKKVEPKSCDKTHTCPPCPAPEAAGGPSVFLFPPKPKDTLMISRTPEVTCVVVDVSHEDPEVKFNWYVDGVEVHNAKTKPREEQYNSTYRVVSVLTVLHQDWLNGKEYKCKVSNKALGAPIEKTISKAKGQPREPQVCTLPPSRDELTKNQVSLSCAVKGFYPSDIAVEWESNGQPENNYKTTPPVLDSDGSFFLVSKLTVDKSRWQQGNVFSCSVMHEALHNHYTQKSLSLSP
light 1: EVQLLESGGGLVQPGGSLRLSCAASGFTFSSYAMSWVRQAPGKGLEWVSAIIGSGASTYYADSVKGRFTISRDNSKNTLYLQMNSLRAEDTAVYYCAKGWFGGFNYWGQGTLVTVSSASVAAPSVFIFPPSDEQLKSGTASVVCLLNNFYPREAKVQWKVDNALQSGNSQESVTEQDSKDSTYSLSSTLTLSKADYEKHKVYACEVTHQGLSSPVTKSFNRGEC
heavy 2: not shown
light 2: not shown
notes: huIgG1 PG-LALA CrossFab 1+1; also called P1AE3135
- Kd [6]: 5.3 nM
- koff [6]: 0.000994 s⁻¹
- kon [6]: 187000 M⁻¹ s⁻¹
- binding result [7]: binds
- Kd [8]: 5.3 nM
